In PMC5931981, “Identification of a pyrophosphate-dependent kinase and its donor selectivity determinants” (Nature Communications, 2018):

Columns and labels:
TM0415 = molecular target: T1, TM0415 (Thermotoga maritima, UniProt Q9WYP6); assay: X-ray crystal structure; assay type: binding; settings: untagged
T1 construct: gene TM_0415; synthetic gene in pET-15b, E. coli BL21(DE3)pLysS; N-terminal His-tag for activity and kinetics; untagged for crystallization; monomer
T1 sequence (Q9WYP6 1-286): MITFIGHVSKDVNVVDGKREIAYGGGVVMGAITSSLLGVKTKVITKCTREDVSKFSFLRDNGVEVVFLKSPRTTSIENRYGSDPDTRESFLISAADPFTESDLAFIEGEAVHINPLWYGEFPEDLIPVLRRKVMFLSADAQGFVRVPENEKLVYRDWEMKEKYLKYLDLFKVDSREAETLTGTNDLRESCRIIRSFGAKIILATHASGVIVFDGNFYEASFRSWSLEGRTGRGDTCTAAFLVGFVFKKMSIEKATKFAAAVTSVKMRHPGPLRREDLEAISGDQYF

malachite green Pi assay [1] = substrate: O[C@H]1[C@H](O)[C@@H](O)[C@H](O)[C@@H](O)[C@H]1O; assay: malachite green Pi assay; assay type: biochemical, Thermotoga maritima; settings: PPi as phosphate donor, 500 µM MgCl2, 50 mM MES-NaOH pH 6.1, 70 °C, His-tagged
malachite green Pi assay [2] = substrate: O=P(O)(O)OP(=O)(O)O; assay: malachite green Pi assay; assay type: biochemical, Thermotoga maritima; settings: myo-inositol as acceptor, 500 µM MgCl2, 50 mM MES-NaOH pH 6.1, 70 °C, His-tagged, upper limit, velocity constant at 15-500 µM

## O=P(O)(O)CP(=O)(O)O [PCP]
TM0415; phosphate-donor site, chain A, with Mg2+ and myo-inositol
  X-ray crystal structure: Chain A was complexed with PCP, a magnesium ion, and myo-inositol

## O[C@H]1[C@H](O)[C@@H](O)[C@H](O)[C@@H](O)[C@H]1O [myo-inositol]
TM0415; phosphate-acceptor site, with PCP and Mg2+, also in sulfate complex 5YSQ
  X-ray crystal structure: D11, N78, Q141, and R145 in TM0415 interact with four of the six hydroxyl groups

B1: TM0415 (Thermotoga maritima MSB8) (protein)
chain: MITFIGHVSKDVNVVDGKREIAYGGGVVMGAITSSLLGVKTKVITKCTREDVSKFSFLRDNGVEVVFLKSPRTTSIENRYGSDPDTRESFLISAADPFTESDLAFIEGEAVHINPLWYGEFPEDLIPVLRRKVMFLSADAQGFVRVPENEKLVYRDWEMKEKYLKYLDLFKVDSREAETLTGTNDLRESCRIIRSFGAKIILATHASGVIVFDGNFYEASFRSWSLEGRTGRGDTCTAAFLVGFVFKKMSIEKATKFAAAVTSVKMRHPGPLRREDLEAISGDQYF
notes: synthetic gene in pET-15b, E. coli BL21(DE3)pLysS; N-terminal His-tag for activity and kinetics; untagged for crystallization; monomer
Malachite green Pi assay [1]
  Km: 12 ± 2 mM
  kcat: 10.8 ± 0.3 s⁻¹
Malachite green Pi assay [2]
  kcat: ~9.5 s⁻¹
